Test results as given in US20120295975A1 (University of California, published 2012).

T1: transforming growth factor-β activated kinase 1 (TAK1), endogenous, RAW 264.7 cells (mouse, UniProt Q62073 1-579)
T1 construct: Endogenous protein in cell lysate
T1 sequence (looked up): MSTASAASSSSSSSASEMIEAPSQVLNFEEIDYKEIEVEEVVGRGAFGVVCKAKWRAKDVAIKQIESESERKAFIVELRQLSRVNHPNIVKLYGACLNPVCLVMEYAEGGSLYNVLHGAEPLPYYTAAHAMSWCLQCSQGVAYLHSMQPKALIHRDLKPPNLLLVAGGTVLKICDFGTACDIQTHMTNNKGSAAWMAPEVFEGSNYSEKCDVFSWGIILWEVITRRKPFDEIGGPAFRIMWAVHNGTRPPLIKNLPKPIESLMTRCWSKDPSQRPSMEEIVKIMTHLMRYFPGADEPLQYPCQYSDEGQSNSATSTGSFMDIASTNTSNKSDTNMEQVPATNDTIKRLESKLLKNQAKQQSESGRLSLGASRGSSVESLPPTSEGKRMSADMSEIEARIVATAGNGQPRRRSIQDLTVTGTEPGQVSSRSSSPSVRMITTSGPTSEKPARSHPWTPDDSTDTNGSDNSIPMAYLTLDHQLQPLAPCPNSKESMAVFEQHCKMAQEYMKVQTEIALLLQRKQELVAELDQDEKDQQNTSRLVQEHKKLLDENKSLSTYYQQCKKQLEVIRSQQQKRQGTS


Tests used:
[1] = target: T2, β-arrestin2 (endogenous, RAW 264.7 cells) (mouse, UniProt Q91YI4 1-410); assay: co-IP, RAW 264.7 cells, DHA 30 min (FIG. 3E)
T2 construct: Endogenous protein in cell lysate; also called βarr2
Description: (§1) FIG. 3. GPR120 internalization with β-arrestin2 mediates anti-inflammatory effects. (A) RAW 264.7 cells were transfected with siRNA as indicated and stimulated with or without 100 μM of DHA 1 hr prior to LPS (100 ng/ml) treatment for 10 min and then subjected to western blotting. […] (C) Phosphorylation of TAK1 and MKK4 in RAW 264.7 cells with or without siRNA transfection as indicated. (D) HEK 293 cells were co-transfected with HA-GPR120 and β-arrestin2.GFP to analyze GPR120 internalization after DHA stimulation for the indicated times. GPR120 (left column) and β-arrestin2 (middle column) were localized by confocal microscopy. (E) Co-immunoprecipitation between GPR120 and β-arrestin2 with DHA stimulation for 30 min in RAW 264.7 cells and, (F) HEK 293 cells (HA-GPR120 and (β-arrestin2*GFP), respectively. Lysate indicates 1/10 input in each experiment. Interaction between TAB1 and β-arrestin2 (G), and interaction between TAB1 and TAK1 (H) were detected by co-immunoprecipitation and the scanned bar graph quantitates the association in RAW 264.7 cells. (I) Schematic diagram of the β-arrestin2 and GPR120-mediated anti-inflammatory mechanism. The left half of the diagram indicate the DHA-mediated anti-inflammatory effect, and the right half of the diagram indicate the LPS- and TNF-α-induced inflammatory pathway. See also FIG. 9. […]

[2] = target: T1, transforming growth factor-β activated …; assay: co-IP, RAW 264.7 cells (FIG. 3H)
Description: as §1

T2 sequence (Q91YI4 whole entry): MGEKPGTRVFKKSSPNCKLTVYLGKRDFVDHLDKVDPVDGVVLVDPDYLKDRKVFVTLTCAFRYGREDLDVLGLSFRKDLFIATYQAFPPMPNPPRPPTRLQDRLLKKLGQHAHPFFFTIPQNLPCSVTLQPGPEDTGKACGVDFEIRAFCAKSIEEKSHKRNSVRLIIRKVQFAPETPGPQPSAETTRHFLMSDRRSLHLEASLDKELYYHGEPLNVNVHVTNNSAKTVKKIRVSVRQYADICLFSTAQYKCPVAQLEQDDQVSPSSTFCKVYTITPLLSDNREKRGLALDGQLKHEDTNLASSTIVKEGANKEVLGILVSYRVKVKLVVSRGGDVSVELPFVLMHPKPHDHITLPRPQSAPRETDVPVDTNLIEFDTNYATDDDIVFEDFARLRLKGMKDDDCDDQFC

Row | Binder | binding result [1] | binding result [2]
1 | GPR120 (endogenous, RAW 264.7 cells) (receptor, mouse, UniProt Q7TMA4 1-361, looked up, whole, on cells; also called ω-3 FA receptor/sensor) MSPECAQTTGPGPSHTLDQVNRTHFPFFSDVKGDHRLVLSVVETTVLGLIFVVSLLGNVCALVLVARRRRRGATASLVLNLFCADLLFTSAIPLVLVVRWTEAWLLGPVVCHLLFYVMTMSGSVTILTLAAVSLERMVCIVRLRRGLSGPGRRTQAALLAFIWGYSALAALPLCILFRVVPQRLPGGDQEIPICTLDWPNRIGEISWDVFFVTLNFLVPGLVIVISYSKILQITKASRKRLTLSLAYSESHQIRVSQQDYRLFRTLFLLMVSFFIMWSPIIITILLILIQNFRQDLVIWPSLFFWVVAFTFANSALNPILYNMSLFRNEWRKIFCCFFFPEKGAIFTDTSVRRNDLSVISS | binds | 
2 | TAK1 binding protein 1 (TAB1), endogenous, RAW 264.7 cells (other, mouse, UniProt Q8CF89 1-502, looked up, Endogenous protein in cell lysate) MAAQRRSLLQSEQQPSWTDDLPLCHLSGVGSASNRSYSADGKGTESHPPEDNWLKFRSENNCFLYGVFNGYDGNRVTNFVAQRLSAELLLGQLNTEHTEADVRRVLLQAFDVVERSFLESIDDALAEKASLQSQLPEGVPQHQLPPQYQKILERLKALEREISGGAMAVVAVLLNSKLYVANVGTNRALLCKSTVDGLQVTQLNMDHTTENEDELFRLSQLGLDAGKIKQMGVICGQESTRRIGDYKVKYGYTDIDLLSAAKSKPIIAEPEIHGAQPLDGVTGFLVLMSEGLYKALEAAHGPGQANQEIAAMIDTEFAKQTSLDAVAQAVVDRVKRIHSDTFASGGERAKFCPRHEDMTLLVRNFGYPLGEMSQPTPTPAPGGRVYPVSVPYSSAQSTSKTSVTLSLVMPSQGQMVNGSHSASTLDEATPTLTNQSPTLTLQSTNTHTQSSSSSSDGGLFRSRPAHSLPPGEDGRVEPYVDFAEFYRLWSVDHGEQSVMTAP |  | binds
